Assay results taken from article PMC3528108.
Read-outs that look alike come from different tables or passages of the source.

What was measured:
GST-TRF2 [1] = biological target: T1, GST-TRF2 (human, UniProt Q15554 1-542); assay: ELISA
GST-TRF2 [2] = biological target: T1, GST-TRF2; assay: ELISA; remark: listed apart in the source

T1 sequence (Q15554 whole entry): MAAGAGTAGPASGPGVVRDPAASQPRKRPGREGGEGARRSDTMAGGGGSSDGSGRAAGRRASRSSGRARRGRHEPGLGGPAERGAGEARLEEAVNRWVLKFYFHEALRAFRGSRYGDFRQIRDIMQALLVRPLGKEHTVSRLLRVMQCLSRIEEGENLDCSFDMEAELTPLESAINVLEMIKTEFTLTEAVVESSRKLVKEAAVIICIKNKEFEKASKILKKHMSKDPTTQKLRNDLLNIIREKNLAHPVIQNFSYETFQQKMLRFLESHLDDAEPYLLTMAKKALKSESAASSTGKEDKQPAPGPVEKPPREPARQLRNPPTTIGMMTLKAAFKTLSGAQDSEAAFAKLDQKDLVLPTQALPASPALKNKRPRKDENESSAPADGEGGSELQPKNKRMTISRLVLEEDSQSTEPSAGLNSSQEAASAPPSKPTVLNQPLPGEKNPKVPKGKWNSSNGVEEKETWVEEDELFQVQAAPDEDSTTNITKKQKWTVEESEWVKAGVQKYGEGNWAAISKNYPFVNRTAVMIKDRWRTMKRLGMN

| Binder | binding result (GST-TRF2 [1]) | binding result (GST-TRF2 [2]) |
| --- | --- | --- |
| UUACCGUUACCGUUACCGUUACCG (ssRNA) [TERRA-mut] | no binding |  |
| AGGGGGCCGUGGGGUGGGAGCUGGGG (structured_RNA) [BCL2 RNA G-quadruplex] |  | binds |
| AGGGAGGGGCGGGUCUGGG (structured_RNA) [NRAS RNA G-quadruplex] |  | binds |
